Results published in US20210253718A1, “FRIZZLED5 PROTEIN-BINDING AGENTS” (Modmab Therapeutics Corporation, priority 2016, published 2021).
Positions count from the first letter of the chain named.

T1: FZD10 CRD (Homo sapiens, UniProt Q9ULW2)
T1 construct: 30-156; GPI anchor signal (C); expressed in transfected cells; host or cells: CHO cells, lentiviral pLenti-puro
T1 sequence (Q9ULW2 30-156): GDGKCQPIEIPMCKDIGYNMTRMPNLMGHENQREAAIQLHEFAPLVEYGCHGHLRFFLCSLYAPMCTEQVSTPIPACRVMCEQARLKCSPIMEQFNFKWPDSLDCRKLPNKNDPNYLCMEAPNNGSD

T2: FZD9 CRD (Homo sapiens, UniProt O00144)
T2 construct: G35-A161; GPI anchor signal (C); expressed in transfected cells; host or cells: CHO cells, lentiviral pLenti-puro
T2 sequence (O00144 35-161): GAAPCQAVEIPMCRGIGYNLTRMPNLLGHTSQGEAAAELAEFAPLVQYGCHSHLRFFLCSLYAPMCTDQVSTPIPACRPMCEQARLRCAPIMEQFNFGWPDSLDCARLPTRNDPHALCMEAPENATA

T3: FZD8 CRD (Homo sapiens, UniProt Q9H461)
T3 construct: K31-D155; GPI anchor signal (C); expressed in transfected cells; host or cells: CHO cells, lentiviral pLenti-puro
T3 sequence (Q9H461 31-155): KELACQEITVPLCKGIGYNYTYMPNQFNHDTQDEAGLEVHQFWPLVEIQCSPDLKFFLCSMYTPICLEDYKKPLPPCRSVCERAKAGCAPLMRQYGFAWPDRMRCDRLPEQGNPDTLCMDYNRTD

B1: Fab-2898: anti-FZD5 Fab with antibody variable region Fv-2898; CDR SEQ ID NOs: 35, 36, 37, 76, 113, 152 (antibody, V domains shown)
VH: EVQLVESGGGLVQPGGSLRLSCAASGFNIYSYSMHWVRQAPGKGLEWVASIYSSSGSTSYADSVKGRFTISADTSKNTAYLQMNSLRAEDTAVYYCARAVWGLDYWGQGTLVTVSS
VL: DIQMTQSPSSLSASVGDRVTITCRASQSVSSAVAWYQQKPGKAPKLLIYSASSLYSGVPSRFSGSRSGTDFTLTISSLQPEDFATYYCQQWWGYYSLITFGQGTKVEIK
B2: Fab-2923: anti-FZD5 Fab with antibody variable region Fv-2923; CDR SEQ ID NOs: 35, 36, 62, 100, 138, 162 (antibody, V domains shown)
VH: EVQLVESGGGLVQPGGSLRLSCAASGFNLYYYYMHWVRQAPGKGLEWVASIYSSSGSTSYADSVKGRFTISADTSKNTAYLQMNSLRAEDTAVYYCARGAMDYWGQGTLVTVSS
VL: B1 VL with W92Y, Y95S, S96A
B3: Fab-2899: anti-FZD5 Fab with antibody variable region Fv-2899; CDR SEQ ID NOs: 35, 36, 38, 77, 114, 153 (antibody, V domains shown)
VH: B2 VH with S53P, M101L
VL: B1 VL with W92Y, G93S, Y94S, S96G
B4: Fab-2909: anti-FZD5 Fab with antibody variable region Fv-2909; CDR SEQ ID NOs: 35, 36, 48, 87, 124, 161 (antibody, V domains shown)
VH: EVQLVESGGGLVQPGGSLRLSCAASGFNISSSYMHWVRQAPGKGLEWVASISSSSGYTSYADSVKGRFTISADTSKNTAYLQMNSLRAEDTAVYYCARTVRGSKKPYFSGWAMDYWGQGTLVTVSS
VL: B1 VL with W91S, G93S, Y95H, S96Y
B5: Fab-2903: anti-FZD5 Fab with antibody variable region Fv-2903; CDR SEQ ID NOs: 35, 36, 42, 81, 118, 155 (antibody, V domains shown)
VH: B2 VH with Y30S, M34I, S53P, S54Y, G56S, S57Y, M101I
VL: B1 VL with W92G, Y94G, Y95S, I98F
B6: Fab-2902: anti-FZD5 Fab with antibody variable region Fv-2902; CDR SEQ ID NOs: 35, 36, 41, 80, 117, 153 (antibody, V domains shown)
VH: B2 VH with L29I, Y30S, M34I, Y52S, G56S, M101L
VL: B1 VL with W92Y, G93A, Y94F, Y95G, S96A
B7: Fab-2926: anti-FZD5 Fab with antibody variable region Fv-2926; CDR SEQ ID NOs: 35, 36, 65, 103, 141, 173 (antibody, V domains shown)
VH: B2 VH with L29I, Y31S, Y32S, S53P, G56S, A100G, M101L
VL: B1 VL with W92Y, G93H, Y94G, Y95G, I98F
B8: Fab-2901: anti-FZD5 Fab with antibody variable region Fv-2901; CDR SEQ ID NOs: 35, 36, 40, 79, 116, 154 (antibody, V domains shown)
VH: EVQLVESGGGLVQPGGSLRLSCAASGFNISYSYMHWVRQAPGKGLEWVASIYSYSSYTYYADSVKGRFTISADTSKNTAYLQMNSLRAEDTAVYYCARSWYYWSPSSGMDYWGQGTLVTVSS
VL: DIQMTQSPSSLSASVGDRVTITCRASQSVSSAVAWYQQKPGKAPKLLIYSASSLYSGVPSRFSGSRSGTDFTLTISSLQPEDFATYYCQQGGFLITFGQGTKVEIK
B9: Fab-2906: anti-FZD5 Fab with antibody variable region Fv-2906; CDR SEQ ID NOs: 35, 36, 45, 84, 121, 158 (antibody, V domains shown)
VH: B4 VH with I29F, Y33S, M34I, S50Y, S55Y, S59Y
VL: DIQMTQSPSSLSASVGDRVTITCRASQSVSSAVAWYQQKPGKAPKLLIYSASSLYSGVPSRFSGSRSGTDFTLTISSLQPEDFATYYCQQWSWGFLITFGQGTKVEIK

Columns and labels:
PATU8988S cells = test: Effect of anti-FZD5 Fabs on proliferation of pancreatic cancer cell lines (percent growth inhibition); format: cell-based, human; conditions: Fab 2 μg/ml
[1] = system: CHO cells not expressing Frizzled CRD; test: Flow cytometry of anti-FZD5 Fab binding to CHO cells not expressing Frizzled CRD (background)
Excerpt: The binding of anti-FZD5 Fabs to cell surface-expressed Frizzled protein was further determined for each member of the Frizzled family via flow cytometry and immunofluorescence analysis of a panel of 10 CHO cell lines, each ectopically over-expressing the extracellular cysteine-rich domain (CRD) of a different Frizzled protein family member.

FZD7 CRD = target: T4, FZD7 CRD (Homo sapiens, UniProt O75084); test: Immunofluorescence of anti-FZD5 Fab binding to CHO cells overexpressing Frizzled CRD; design: key: −: no binding; +: very weak binder; ++: weak binder; +++: good binder; ++++: very good binder
T4 construct: D45-S169; GPI anchor signal (C); expressed in transfected cells; host or cells: CHO cells, lentiviral pLenti-puro
In short: (§1)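 CHO lines each stably expressing one human Frizzled CRD as a myc-tagged, GPI-anchored cell-surface cassette (FZD_CRD-MYC-GPI, lentiviral pLenti-puro) were probed with anti-FZD5 Fabs. Binding was read by immunofluorescence, alongside flow cytometry, across the 10-member panel.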

FZD10 CRD = target: T1, FZD10 CRD; test: as above; design: key: −: no binding; +: very weak binder; ++: weak binder; +++: good binder; ++++: very good binder
In short: as §1

FZD9 CRD = target: T2, FZD9 CRD; test: as above; design: key: −: no binding; +: very weak binder; ++: weak binder; +++: good binder; ++++: very good binder
In short: as §1

FZD8 CRD = target: T3, FZD8 CRD; test: as above; design: key: −: no binding; +: very weak binder; ++: weak binder; +++: good binder; ++++: very good binder
In short: as §1

FZD2 CRD = target: T5, FZD2 CRD (Homo sapiens, UniProt Q14332); test: as above; design: key: −: no binding; +: very weak binder; ++: weak binder; +++: good binder; ++++: very good binder
T5 construct: D35-P161; GPI anchor signal (C); expressed in transfected cells; host or cells: CHO cells, lentiviral pLenti-puro
In short: as §1

| Molecule | percent growth inhibition, PATU8988s 2 μg/ml (PATU8988S cells) [%] | Median fluorescence, Frizzled CRD overexpressed on CHO cells: None [1] | Immunofluorescence binding, Frizzled CRD overexpressed on CHO cells: FZD7 (FZD7 CRD) | Immunofluorescence binding, Frizzled CRD overexpressed on CHO cells: FZD10 (FZD10 CRD) | Immunofluorescence binding, Frizzled CRD overexpressed on CHO cells: FZD9 (FZD9 CRD) | Immunofluorescence binding, Frizzled CRD overexpressed on CHO cells: FZD8 (FZD8 CRD) | Immunofluorescence binding, Frizzled CRD overexpressed on CHO cells: FZD2 (FZD2 CRD) |
| --- | --- | --- | --- | --- | --- | --- | --- |
| B1 | 4.53 | 5.38 | +++ | − | − | + | +++ |
| B2 | −18.54 |  | − | − | − | + | − |
| B3 | 4.94 | 4.91 | +++ | − | − | + | +++ |
| B4 | −9.95 | 3.4 | + | − | − | − | − |
| B5 | −22.81 | 4.07 | ++ | − | − | + | − |
| B6 | −15.75 | 4.66 | + | − | − | ++ | − |
| B7 | −15.89 |  | − | − | − | + | − |
| B8 | −9.37 | 3.75 | + | − | − | + | − |
| B9 | −17.42 | 3.89 | + | +++ | − | + | − |
